2 molecules from patent publication US20240317847A1 (Bayer, published 2024) can be followed below.

Assay [1] concerns the target T1, murine IL-11 (mouse, UniProt P47873 22-199).
T1 construct: Invigate, e.g. lot #C210819-09; biotinylated where coated in the ELISA; also called mIL-11; mIL11
T1 sequence: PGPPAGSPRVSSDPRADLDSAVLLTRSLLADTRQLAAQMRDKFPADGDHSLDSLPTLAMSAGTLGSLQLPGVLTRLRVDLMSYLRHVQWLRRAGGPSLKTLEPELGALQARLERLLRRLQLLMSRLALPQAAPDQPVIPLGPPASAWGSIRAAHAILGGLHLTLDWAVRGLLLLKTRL
Description: SPR 37 C, antibody captured, IL-11 as analyte.

The next assay has as its target T2, rat IL-11 (rat, UniProt Q99MF5 22-199).
T2 construct: Invigate, e.g. lot #C301019-19; also called rIL11
T2 sequence: T1 sequence with S50N, L84F, G94A, V137A, I138V
Description: SPR 37 C, antibody captured, IL-11 as analyte.

The target in the next assay is T3, cynomolgus IL-11 (cynomolgus, UniProt P20808 22-199).
T3 construct: Invigate, lot #C290621-19; also called cIL11; cynoL-11
T3 sequence: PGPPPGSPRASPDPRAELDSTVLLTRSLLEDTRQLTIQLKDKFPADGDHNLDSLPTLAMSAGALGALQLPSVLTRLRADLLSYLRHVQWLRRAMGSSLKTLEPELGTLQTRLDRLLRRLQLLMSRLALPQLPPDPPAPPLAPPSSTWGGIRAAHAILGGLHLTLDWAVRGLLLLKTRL
Kind of assay: SPR 37 C, antibody captured, IL-11 as analyte.

The target of the next assay is T4, human IL-11 (human, UniProt P20809 22-199).
T4 sequence: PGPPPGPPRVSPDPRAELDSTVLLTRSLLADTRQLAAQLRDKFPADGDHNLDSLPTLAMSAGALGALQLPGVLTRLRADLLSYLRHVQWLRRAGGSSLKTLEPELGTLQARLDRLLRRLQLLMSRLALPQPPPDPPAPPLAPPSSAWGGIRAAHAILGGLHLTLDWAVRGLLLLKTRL
Description: cell-based or functional assay.

Assay [2] concerns the target T1, murine IL-11. Description: cell-based or functional assay.
Assay [3] has as its target T5, murine IL-11 (mouse, UniProt P47873 22-199).
T5 construct: Invigate recombinant protein; biotinylated when immobilized in the Di-complex ELISA; also called mIL11; mIL-11
T5 sequence: T1 sequence
Description: Di-complex ELISA, canine IL11RA-hFc binding to immobilized mIL-11, competition. As to the method: In the Di-complex ELISA format anti IL-11 antibodies are tested for the ability to interfere with the formation of complexes consisting of immobilized murine IL-11 (Invigate, e.g., lot #C210819-09) or human IL-11 (Invigate, e.g., lot #C121021-19), and murine IL11RA-Fc fusion proteins or canine IL11RA-human-Fc fusion protein (FIG. 17a, b).
Bispecific antibodies were subjected to the experimental assay procedure described in Example 18 and IC50 [M], respectively efficacy (%) were calculated accordingly.
(In general: ELISA stands for enzyme-linked immunosorbent assay.)

Positions count from the first letter of the chain named.

The term Kd denotes the concentration at which binding is half-saturated. A low value points to tighter binding. In general, IC50 refers to the concentration at which inhibition is half-maximal. A lower IC50 goes with higher potency.

B1: TPP-18068 (antibody, mouse IgG1)
heavy: EVQLLESGGGLVQPGGSLRLSCAASGFTFSSYGMHWVRQAPGKGLEWVSVISYDGSYKYYADSVKGRFTISRDNSKNTLYLQMNSLRAEDTAVYYCAAGVPDYWGQGTLVTVSSAKTTPPSVYPLAPGSAAQTNSMVTLGCLVKGYFPEPVTVTWNSGSLSSGVHTFPAVLQSDLYTLSSSVTVPSSTWPSETVTCNVAHPASSTKVDKKIVPRDCGCKPCICTVPEVSSVFIFPPKPKDVLTITLTPKVTCVVVDISKDDPEVQFSWFVDDVEVHTAQTQPREEQFNSTFRSVSELPIMHQDWLNGKEFKCRVNSAAFPAPIEKTISKTKGRPKAPQVYTIPPPKEQMAKDKVSLTCMITDFFPEDITVEWQWNGQPAENYKNTQPIMDTDGSYFVYSKLNVQKSNWEAGNTFTCSVLHEGLHNHHTEKSLSHSPGK
light: QSVLTQPPSASGTPGQRVTISCTGSSSNIGAGYDVHWYQQLPGTAPKLLIYSNNERPSGVPDRFSGSKSGTSASLAISGLRSEDEADYYCAAWDDSLNGPVFGGGTKLTVLGQPKSSPSVTLFPPSSEELETNKATLVCTITDFYPGVVTVDWKVDGTPVTQGMETTQPSKQSNNKYMASSYLTLTARAWERHSSYSCQVTHEGHTVEKSLSRADCS
notes: mIgG1, Lambda
In the case of B1, the values for the Kd with murine IL-11 [1], in the assay with rat IL-11 and with cynomolgus IL-11 were 0.41 nM, 0.58 nM and 5 nM, respectively. Besides, the “RGA Efficacy (%)” value with human IL-11 came out at 60.3%; with murine IL-11 [2] it was 93.1%. The figures for the “RGA IC50” value in the assay with human IL-11 and with murine IL-11 [2] were 6.7 nM and 1 nM, respectively.

B2: TPP-29603 (bispecific antibody, IgG1)
chain 1: QVQLVESGGGVVQPGRSLRLSCAASGFTFSHYDMHWVRQAPGKGLEWVAVISYHGSVKFYADSVKGRFTISRDNSKNTLYLQMNSLRAEDTAVYYCARTPGFHFDYWGQGTLVTVSSGGGGSGGGGSGGGGSQSVLTQPPSASGTPGQRVTISCSGSSSNIGSNYVSWYQQLPGTAPKLLIYYDDLRPSGVPDRFSGSKSGTSASLAISGLRSEDEADYYCSAWDDSLSGVVFGGGTKLTVLGGGGSGGGGSGGGGSGVECPPCPAPPVAGPSVFIFPPKPKDVLTITLTPKVTCVVVDISKDDPEVQFSWFVDDVEVHTAQTQPREEQFNSTFRSVSELPIMHQDWLNGKEFKCRVNSAAFPAPIEKTISKTKGRPKAPQVYTIPPCKEQMAKDKVSLWCMITDFFPEDITVEWQWNGQPAENYKNTQPIMDTDGSYFVYSKLNVQKSNWEAGNTFTCSVLHEGLHNHHTEKSLSHSPGK
chain 2: EVQLLESGGGLVQPGGSLRLSCAASGFTFSSYGMHWVRQAPGKGLEWVAVISYDGSYKYYADSVKGRFTISRDNSKNTLYLQMNSLRAEDTAVYYCAAGVPDYWGQGTLVTVSSGGGGSGGGGSGGGGSQSVLTQPPSASGTPGQRVTISCSGSSSNIGSDYDVHWYQQLPGTAPKLLIYSNEERPSGVPDRFSGSKSGTSASLAISGLRSEDEADYYCSAWDSSLSGPVFGGGTKLTVLGGGGSGGGGSGGGGSGVECPPCPAPPVAGPSVFIFPPKPKDVLTITLTPKVTCVVVDISKDDPEVQFSWFVDDVEVHTAQTQPREEQFNSTFRSVSELPIMHQDWLNGKEFKCRVNSAAFPAPIEKTISKTKGRPKAPQVCTIPPPKEQMAKDKVSLSCAITDFFPEDITVEWQWNGQPAENYKNTQPIMDTDGSYFVVSKLNVQKSNWEAGNTFTCSVLHEGLHNHHTEKSLSHSPGK
notes: scFv-kih-mIgG1; bispecific comprising CDRs of TPP-29528 and TPP-29519
B2 came in with an IC50 in the assay with murine IL-11 [3] of 3.9 nM.
